Target: T1, granulocyte colony stimulating factor (G-CSF) (human), P09919
T1 chain: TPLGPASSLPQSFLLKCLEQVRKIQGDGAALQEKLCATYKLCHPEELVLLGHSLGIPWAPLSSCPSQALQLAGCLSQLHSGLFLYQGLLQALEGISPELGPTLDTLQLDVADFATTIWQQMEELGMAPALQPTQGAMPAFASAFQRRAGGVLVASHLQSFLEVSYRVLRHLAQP
Test: SEC; analytical SEC-HPLC, TSKgel G3000SWXL, mobile phase 0.1 M phosphate pH 2.5, 1 mL/min; 0.3 mg/mL G-CSF in 50 mM citric acid pH 4.25 with or without 1% (w/v) sucrose, mannitol or phenylalanine, before lyophilization; monomer 19.9 min, dimer 18.4 min
Settings: remark: other sources report otherwise

percent dimer: 16% | stoichiometry N: 2
B1: granulocyte colony stimulating factor (G-CSF), P09919-2 31-204 (natural protein)
chain: TPLGPASSLPQSFLLKCLEQVRKIQGDGAALQEKLCATYKLCHPEELVLLGHSLGIPWAPLSSCPSQALQLAGCLSQLHSGLFLYQGLLQALEGISPELGPTLDTLQLDVADFATTIWQQMEELGMAPALQPTQGAMPAFASAFQRRAGGVLVASHLQSFLEVSYRVLRHLAQP
